From publication PMC8328514, “Homo-oligomerization of the human adenosine A2A receptor is driven by the intrinsically disordered C-terminus” (eLife, 2021)

Assays:
P29274 = experiment: SEC; Superdex 200 10/300 GL; ligand-active receptor in running buffer 150 mM NaCl, 50 mM sodium phosphate, 10% glycerol, 0.1% DDM, 0.1% CHAPS, 0.02% CHS, pH 8.0; 4°C; HMW oligomer and dimer peak areas (Gaussian fit) relative to the monomer peak
[1] = target: the molecule itself; experiment: SDS-PAGE and western blot densitometry of SEC-separated dimer; SEC-separated dimers incubated without or with 5 mM TCEP, then SDS-PAGE and western blot; dimer band area relative to monomer band area
[2] = target: the molecule itself; experiment: SEC; consecutive rounds of SEC: a first round separates monomer from dimer/oligomer, a second round is run on the SEC-separated populations; total oligomer level relative to the monomer
[3] = target: the molecule itself; experiment: SEC; Superdex 200 10/300 GL; ligand-active receptor in running buffer 150 mM NaCl, 50 mM sodium phosphate, 10% glycerol, 0.1% DDM, 0.1% CHAPS, 0.02% CHS, pH 8.0; 4°C; HMW oligomer and dimer peak areas (Gaussian fit) relative to the monomer peak

B1: human adenosine A2A receptor, full-length wild type (receptor, UniProt P29274 1-412, looked up)
chain: MPIMGSSVYITVELAIAVLAILGNVLVCWAVWLNSNLQNVTNYFVVSLAAADIAVGVLAIPFAITISTGFCAACHGCLFIACFVLVLTQSSIFSLLAIAIDRYIAIRIPLRYNGLVTGTRAKGIIAICWVLSFAIGLTPMLGWNNCGQPKEGKNHSQGCGEGQVACLFEDVVPMNYMVYFNFFACVLVPLLLMLGVYLRIFLAARRQLKQMESQPLPGERARSTLQKEVHAAKSLAIIVGLFALCWLPLHIINCFTFFCPDCSHAPLWLMYLAIVLSHTNSVVNPFIYAYRIREFRQTFRKIIRSHVLRQQEPFKAAGTSARVLAAHGSDGEQVSLRLNGHPPGVWANGSAPHPERRPNGYALGLVSGGSAQESQGNTGLPDVELLSHELKGVCPEPPGLDDPLAQDGAGVS
notes: adenosine A2A receptor, human, full-length wild type; also called A2AR-WT; A2AR-FL-WT
HMW oligomer + dimer level (relative to monomer) (P29274): WT: 1.34
HMW oligomer level (relative to monomer) (P29274): ctrl: 0.88
dimer level (relative to monomer) with 5 mM TCEP [1]: 0.51 arbitrary units
dimer level (relative to monomer) without TCEP [1]: 1.14 arbitrary units
total oligomer level (relative to monomer), SEC-separated monomer after redistribution [2]: 1.6 arbitrary units
total oligomer level (relative to monomer), initial sample [2]: 2.87 arbitrary units
total oligomer level (relative to monomer) [3]: 1.37 arbitrary units
